Tests used:
[1] = test system: Escherichia coli MG1655; experiment: Plate-based growth inhibition assay; type: cell-based; details: overnight incubation, 384 well plate, two replicates; peptide purified from CFPS
Description: Antimicrobial peptide activity was tested with a plate-based growth inhibition study. A 5 ml culture of Escherichia coli MG1655 was grown overnight on Luria Broth (LB) from a glycerol stock. On the day of the assay, the overnight culture was diluted to an OD of 0.08 in LB and then grown to mid log phase (OD ˜0.5). The mid log phase cells were diluted to […] (assuming 1 OD=8×10^8 cells/ml) into LB with 0.005% Antifoam 204 (Sigma A6426) and 1 mg/ml BSA (Sigma-Aldrich A2153-100G). 5 μl of these cells were added to 10 μl of purified antimicrobial peptide in a UV-sterilized 384 well, clear bottom plate (Greiner Bio-One 781096). Positive controls included 10 μl of the wash buffer the hormones were dissolved in and 10 μl of a no DNA control where no DNA template was added to the CFPS reactions, but the sample was treated exactly like the other antimicrobial peptide samples. Negative controls included a final kanamycin concentration of 50 μg/ml and adding 10 μl of the LB with 0.005% Antifoam 204 and 1 mg/ml BSA without E. coli cells. The plate was sealed with a microseal B adhesive (Bio-Rad MSB1001) and incubated in a plate reader with continuous shaking for 18 hr at 37° C. and absorbance measurements at 600 nm every 15 min.

[2] = biological target: T1, extracellular domain of PTH receptor (Homo sapiens, UniProt Q03431); experiment: AlphaLISA cross-titration of PTH and PTH receptor; type: binding; details: sFLAG-tagged PTH, anti-FLAG donor beads; His-tagged PTH receptor, nickel chelate acceptor beads
T1 construct: purchased Abcam ab182670
T1 sequence (Q03431 27-186 limits assumed): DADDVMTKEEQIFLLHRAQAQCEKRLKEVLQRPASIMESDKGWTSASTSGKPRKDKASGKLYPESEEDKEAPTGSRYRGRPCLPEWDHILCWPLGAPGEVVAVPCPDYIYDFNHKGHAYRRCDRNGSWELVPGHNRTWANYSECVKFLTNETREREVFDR

[3] = biological target: T2, parathyroid hormone receptor (Homo sapiens, UniProt Q03431); experiment: Biolayer interferometry (BLI) of PTH binding to its receptor; details: undiluted CFPS PTH or 67 μg/ml commercial PTH; with and without receptor on tip
T2 construct: purchased R&D systems 5709-PR-50
T2 sequence (Q03431 27-186 limits assumed): T1 sequence (Q03431 27-186 limits assumed)
Text: In fact, the entire sequences except for the two N-terminal and C-terminal amino acids were confirmed for both GLP-1 mutant and GLP-1 in these experiments. The peptide hormones are cleaved precisely at the C-terminus of SUMO to give tagless hormones as expected. […] There was low signal relative to GH, however, the binding signal is still more than 3 standard deviations above the background noise. Unfortunately, this binding was unable to be confirmed with BLI, likely because the hormone is too small (3.5 kDa) to generate enough of a wavelength shift to be detected by the instrument (FIG. 9f). […] Full-length parathyroid hormone was detected in the deconvoluted LC-MS spectra with an observed mass of 9424.66 Da, which matches the theoretical mass of 9424.73 Da with an error of 7.4 ppm (FIG. 10a). PTH was also detected by two orthogonal antibodies in a commercial sandwich ELISA assay (Biomatik EKF58372). The concentration was determined to be 24±11 μg/ml with 4 dilutions of a single sample (FIG. 10a). This value is approximately 80% of that detected by BCA and densitometry. […] Black lines represent a commercially purchased positive control PTH (OriGene SA6052) where there is no receptor immobilized on the lightly shaded line and receptor immobilized with the dark line. […]

Row | PTH binding to extracellular domain of its receptor (BLI) [3] | Substance | Growth of E. coli MG1655 [1] | PTH interaction with extracellular domain of its receptor (AlphaLISA) [2]
1 | – | Melittin | inhibiting growth of the bacteria | –
2 | unable to detect PTH binding | Parathyroid Hormone [PTH] | – | very low signal that has a typical binding pattern
3 | high background binding | positive control PTH: commercially purchased positive control PTH (OriGene SA6052) [reference compound] | – | –

Source: patent publication US20240383959A1, “CELL-FREE METHODS AND COMPOSITIONS COMPRISING TAGLESS THERAPEUTIC HORMONES” (Northwestern University, priority 2021, published 2024)
